# Measurements taken from PMC11149935, “SAFB regulates hippocampal stem cell fate by targeting Drosha to destabilize Nfib mRNA” (eLife, 2024).
# T1: Drosha (endogenous, N2A cells) (mouse (endogenous in N2A), UniProt Q5HZJ0 1-1373)
# T1 construct: Drosha, endogenous protein of N2A neuroblastoma cells (ATCC CCL-131); source: endogenous, N2A lysate
# T1 sequence (looked up): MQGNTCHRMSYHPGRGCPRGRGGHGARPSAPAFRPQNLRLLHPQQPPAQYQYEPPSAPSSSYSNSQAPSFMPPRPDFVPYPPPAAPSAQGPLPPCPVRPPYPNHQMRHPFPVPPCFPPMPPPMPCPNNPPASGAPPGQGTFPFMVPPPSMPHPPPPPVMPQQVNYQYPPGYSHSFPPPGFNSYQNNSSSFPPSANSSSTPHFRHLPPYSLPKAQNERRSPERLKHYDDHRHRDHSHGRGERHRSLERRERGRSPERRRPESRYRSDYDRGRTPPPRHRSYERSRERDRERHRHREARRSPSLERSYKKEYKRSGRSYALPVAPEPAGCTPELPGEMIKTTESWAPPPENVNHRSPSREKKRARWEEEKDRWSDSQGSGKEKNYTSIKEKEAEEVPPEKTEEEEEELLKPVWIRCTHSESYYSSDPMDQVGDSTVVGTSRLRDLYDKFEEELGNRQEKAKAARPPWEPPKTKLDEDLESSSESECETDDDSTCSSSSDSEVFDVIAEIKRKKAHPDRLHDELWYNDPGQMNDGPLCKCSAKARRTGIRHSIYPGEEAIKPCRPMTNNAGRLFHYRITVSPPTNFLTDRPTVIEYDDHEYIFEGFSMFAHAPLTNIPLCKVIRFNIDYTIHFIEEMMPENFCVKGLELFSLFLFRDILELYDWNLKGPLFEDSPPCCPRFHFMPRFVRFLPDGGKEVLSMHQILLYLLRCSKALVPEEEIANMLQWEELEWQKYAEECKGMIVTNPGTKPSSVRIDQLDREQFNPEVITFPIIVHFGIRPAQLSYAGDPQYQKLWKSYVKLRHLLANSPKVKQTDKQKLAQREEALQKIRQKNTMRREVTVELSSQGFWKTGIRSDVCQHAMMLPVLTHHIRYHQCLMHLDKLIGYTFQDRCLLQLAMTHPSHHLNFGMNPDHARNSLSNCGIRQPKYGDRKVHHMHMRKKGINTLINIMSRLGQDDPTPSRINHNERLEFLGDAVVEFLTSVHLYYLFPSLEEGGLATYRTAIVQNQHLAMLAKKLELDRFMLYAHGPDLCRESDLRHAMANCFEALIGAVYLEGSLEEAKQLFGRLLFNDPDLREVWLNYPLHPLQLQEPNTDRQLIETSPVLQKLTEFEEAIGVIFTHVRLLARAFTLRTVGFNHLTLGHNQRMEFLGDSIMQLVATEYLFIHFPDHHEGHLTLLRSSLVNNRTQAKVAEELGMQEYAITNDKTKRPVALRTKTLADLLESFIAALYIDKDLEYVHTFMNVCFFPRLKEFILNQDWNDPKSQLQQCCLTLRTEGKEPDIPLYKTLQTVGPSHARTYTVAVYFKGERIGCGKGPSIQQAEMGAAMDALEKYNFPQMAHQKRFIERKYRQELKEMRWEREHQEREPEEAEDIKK
# B1: SAFB-ΔRE-HA (natural protein, UniProt Q15424 1-915, looked up)
# chain: MAETLSGLGDSGAAGAAALSSASSETGTRRLSDLRVIDLRAELRKRNVDSSGNKSVLMERLKKAIEDEGGNPDEIEITSEGNKKTSKRSSKGRKPEEEGVEDNGLEENSGDGQEDVETSLENLQDIDIMDISVLDEAEIDNGSVADCVEDDDADNLQESLSDSRELVEGEMKELPEQLQEHAIEDKETINNLDTSSSDFTILQEIEEPSLEPENEKILDILGETCKSEPVKEESSELEQPFAQDTSSVGPDRKLAEEEDLFDSAHPEEGDLDLASESTAHAQSSKADSLLAVVKREPAEQPGDGERTDCEPVGLEPAVEQSSAASELAEASSEELAEAPTEAPSPEARDSKEDGRKFDFDACNEVPPAPKESSTSEGADQKMSSPEDDSDTKRLSKEEKGRSSCGRNFWVSGLSSTTRATDLKNLFSKYGKVVGAKVVTNARSPGARCYGFVTMSTAEEATKCINHLHKTELHGKMISVEKAKNEPVGKKTSDKRDSDGKKEKSSNSDRSTNLKRDDKCDRKDDAKKGDDGSGEKSKDQDDQKPGPSERSRAVRRPYDLDRRDDAYWPEAKRAALDERYHSDFNRQDRFHDFDHRDRGRYPDHSVDRREGSRSMMGEREGQHYPERHGGPERHGRDSRDGWGGYGSDKRMSEGRGLPPPPRRDWGDHGRREDDRSWQGTADGGMMDRDHKRWQGGERSMSGHSGPGHMMNRGGMSGRGSFAPGGASRGHPIPHGGMQGGFGGQSRGSRPSDARFTRRY
# notes: SAFB lacking the RE-rich region (amino acids 552-708), made from CAG::Safb-HA-IRES-Cfp by Q5 site-directed mutagenesis; Parent is m26; Also expressed in DG NSCs for the reporter assay; also called CAG::Safb-ΔRE-HA-IRES-Cfp; source: N2A, transfected (TransFectin), in lysate
# Target: T1, Drosha (endogenous, N2A cells)
# Assay: co-IP; N2A cells transfected with SAFB-HA or SAFB-ΔRE-HA, 48 hr; IP of endogenous Drosha, anti-HA immunoblot, densitometry relative to Drosha; IgG isotype control IP
# Settings: partners not purified
binder,measurement,value
B1,fold reduction in binding against SAFB WT,5.7 fold
